Laboratory results taken from patent publication US7884199B2, “HCV NS3-NS4 protease resistance mutants” (priority 2003, dated 2011).
Values joined by “and” are separate entries in the source; they are usually repeats but may differ in a detail not shown here. Identical values can stand only once.

B1: D168A (1b) (protein)
chain: APITAYSQQTRGLLGCIITSLTGRDRNQVEGEVQVVSTATQSFLATCVNGVCWTVYHGAGSKTLAGPKGPITQMYTNVDQDLVGWQAPPGARSLTPCTCGSSDLYLVTRHADVIPVRRRGDSRGSLLSPRPVSYLKGSSGGPLLCPSGHAVGIFRAAVCTRGVAKAVAFVPVESMETTMRSHHHHHH
B2: A156S (1b) (protein)
chain: APITAYSQQTRGLLGCIITSLTGRDRNQVEGEVQVVSTATQSFLATCVNGVCWTVYHGAGSKTLAGPKGPITQMYTNVDQDLVGWQAPPGARSLTPCTCGSSDLYLVTRHADVIPVRRRGDSRGSLLSPRPVSYLKGSSGGPLLCPSGHAVGIFRSAVCTRGVAKAVDFVPVESMETTMRSHHHHHH
B3: A156T (protein)
chain: APITAYSQQTRGLLGCIITSLTGRDRNQVEGEVQVVSTATQSFLATCVNGVCWTVYHGAGSKTLAGPKGPITQMYTNVDQDLVGWQAPPGARSLTPCTCGSSDLYLVTRHADVIPVRRRGDSRGSLLSPRPVSYLKGSSGGPLLCPSGHAVGIFRTAVCTRGVAKAVDFVPVESMETTMRSHHHHHH
B4: A156V (protein)
chain: APITAYSQQTRGLLGCIITSLTGRDRNQVEGEVQVVSTATQSFLATCVNGVCWTVYHGAGSKTLAGPKGPITQMYTNVDQDLVGWQAPPGARSLTPCTCGSSDLYLVTRHADVIPVRRRGDSRGSLLSPRPVSYLKGSSGGPLLCPSGHAVGIFRVAVCTRGVAKAVDFVPVESMETTMRSHHHHHH
B5: Wt (1b): wild-type HCV NS3 serine protease domain, genotype 1b (Con1 strain) (protein)
chain: APITAYSQQTRGLLGCIITSLTGRDRNQVEGEVQVVSTATQSFLATCVNGVCWTVYHGAGSKTLAGPKGPITQMYTNVDQDLVGWQAPPGARSLTPCTCGSSDLYLVTRHADVIPVRRRGDSRGSLLSPRPVSYLKGSSGGPLLCPSGHAVGIFRAAVCTRGVAKAVDFVPVESMETTMRSHHHHHH
B6: D168V (1b) (protein)
chain: APITAYSQQTRGLLGCIITSLTGRDRNQVEGEVQVVSTATQSFLATCVNGVCWTVYHGAGSKTLAGPKGPITQMYTNVDQDLVGWQAPPGARSLTPCTCGSSDLYLVTRHADVIPVRRRGDSRGSLLSPRPVSYLKGSSGGPLLCPSGHAVGIFRAAVCTRGVAKAVVFVPVESMETTMRSHHHHHH

How the values were obtained:
[1] = test system: series A (VX-950-resistant) replicon cells; experiment: HCV replicon cell assay, 48-hour; assay type: cell-based, Hepatitis C virus; conditions: series A (VX-950-resistant) replicon cells
Description: A Taqman real-time RT-PCR quantification assay was set up with two sets of specific primers and probe. […] Total RNA extractants from treated HCV replicon cells was added to the PCR reactions for quantification of both HCV and BVDV RNA in the same PCR well. […] The level of HCV RNA in each well was calculated according to a standard curve run in the same PCR plate. The percentage of inhibition or decrease of HCV RNA level due to compound treatment was calculated using the DMSO or no compound control as 0% of inhibition. The cytotoxicity of the compounds was measured using a mitochondrial enzyme-based cell viability assay, CellTiter 96 AQueous One Solution Cell Proliferation Assay (Promega).

A156T HCV replicon cells = experiment: HCV replicon cell assay, 48-hour; assay type: cell-based, Hepatitis C virus; conditions: 48-hour assay
Text: (§1) During the course of generating of the HCV sub-genomic replicon stable cell lines, several different patterns of adaptive mutations were identified. One pattern has three substitutions in the HCV nonstructural proteins, which were introduced into the original pBR322-HCV-Neo plasmid by site-directed mutagenesis to generate the second-generation sub-genomic replicon plasmid, pBR322-HCV-Neo-mADE. When the T7 run-offRNA transcripts from the Sca I-linearized pBR322-HCV-Neo-mADE plasmid were electroporated into Huh7 cells, stable replicon cell colonies were formed at a much higher efficiency than the original Con1 replicon RNA. The resistance mutations identified in this study were introduced into the pBR322-HCV-Neo-mADE replicon plasmid by site-directed mutagenesis. Stable replicon cell lines were generated using the T7 transcripts derived from either wild type pBR322-HCV-Neo-mADE or the ones with the resistance mutations.
(§2) Cells containing hepatitis C virus (HCV) replicon were maintained in DMEM containing 10% fetal bovine serum (FBS), 0.25 mg per ml of G418, with appropriate supplements (media A).
(§3) On day 1, replicon cell monolayer was treated with a trypsin:EDTA mixture, removed, and then media A was diluted into a final concentration of 100,000 cells per ml with. 10,000 cells in 100 ul were plated into each well of a 96-well tissue culture plate, and cultured overnight in a tissue culture incubator at 37° C.
(§4) On day 2, compounds (in 100% DMSO) were serially diluted into DMEM containing 2% FBS, 0.5% DMSO, with appropriate supplements (media B). The final concentration of DMSO was maintained at 0.5% throughout the dilution series.
(§5) Media on the replicon cell monolayer was removed, and then media B containing various concentrations of compounds was added. Media B without any compound was added to other wells as no compound controls.
(§6) Cells were incubated with compound or 0.5% DMSO in media B for 48 hours in a tissue culture incubator at 37° C. At the end of the 48-hour incubation, the media was removed, and the replicon cell monolayer was washed once with PBS and stored at −80° C. prior to RNA extraction.
(§7) Culture plates with treated replicon cell monolayers were thawed, and a fixed amount of another RNA virus, such as Bovine Viral Diarrhea Virus (BVDV) was added to cells in each well. RNA extraction reagents (such as reagents from RNeasy kits) were added to the cells immediately to avoid degradation of RNA. Total RNA was extracted according the instruction of manufacturer with modification to improve extraction efficiency and consistency. Finally, total cellular RNA, including HCV replicon RNA, was eluted and stored at −80° C. until further processing.
(§8) A Taqman real-time RT-PCR quantification assay was set up with two sets of specific primers and probe. One was for HCV and the other was for BVDV. Total RNA extractants from treated HCV replicon cells was added to the PCR reactions for quantification of both HCV and BVDV RNA in the same PCR well. Experimental failure was flagged and rejected based on the level of BVDV RNA in each well. The level of HCV RNA in each well was calculated according to a standard curve run in the same PCR plate. The percentage of inhibition or decrease of HCV RNA level due to compound treatment was calculated using the DMSO or no compound control as 0% of inhibition. The cytotoxicity of the compounds was measured using a mitochondrial enzyme-based cell viability assay, CellTiter 96 AQueous One Solution Cell Proliferation Assay (Promega).
(§9) Table 6 summary: Three HCV sub-genomic replicon stable cell lines, including the wild-type, and two mutants, A156T and A156V, were generated using the T7 RNA runoff transcripts from the corresponding high efficiency Con 1 replicon plasmids.

A156V HCV replicon cells = experiment: HCV replicon cell assay, 48-hour; assay type: cell-based, Hepatitis C virus
Text: as §1, §2, §3, §4, §5, §6, §7, §8, §9

D168V HCV replicon cells = experiment: HCV replicon cell assay, 48-hour; assay type: cell-based, Hepatitis C virus; conditions: D168V replicon cells, 48-hour assay; read-out: Replicon IC50
Text: as §1, §2, §3, §4, §5, §6, §7, §8
(§10) Four HCV sub-genomic replicon stable cell lines, including the wild type (wt), and three mutants, A156S, D168V and D168A, were generated using the T7 RNA runoff transcripts from the corresponding high efficiency Con1 replicon plasmids.

A156S HCV replicon cells = experiment: HCV replicon cell assay, 48-hour; assay type: cell-based, Hepatitis C virus; conditions: read-out: IC50
Text: as §1, §2, §3, §4, §5, §6, §7, §8, §10

D168A HCV replicon cells = experiment: HCV replicon cell assay, 48-hour; assay type: cell-based, Hepatitis C virus; conditions: 48-hour assay
Text: as §1, §2, §3, §4, §5, §6, §7, §8, §10

[2] = test system: wild type HCV replicon cells (high efficiency Con1 replicon); experiment: HCV replicon cell assay, 48-hour; assay type: cell-based, Hepatitis C virus; conditions: read-out: IC50
Text: as §1, §2
On day 1, replicon cell monolayer was treated with a trypsin:EDTA mixture, removed, and then media A was diluted into a final concentration of 100,000 cells per ml with. […]
as §8, with “One was for HCV and the other was for BVDV.” left out, “Experimental failure was flagged and rejected based on the level of BVDV RNA in each well.” left out, “(Promega). […]” for “(Promega).”

[3] = test system: series C (double-resistant) replicon cells; experiment: HCV replicon cell assay, 48-hour; assay type: cell-based, Hepatitis C virus; conditions: series C replicon cells at day 52
Description: Culture plates with treated replicon cell monolayers were thawed, and a fixed amount of another RNA virus, such as Bovine Viral Diarrhea Virus (BVDV) was added to cells in each well. […]
A Taqman real-time RT-PCR quantification assay was set up with two sets of specific primers and probe. […] Total RNA extractants from treated HCV replicon cells was added to the PCR reactions for quantification of both HCV and BVDV RNA in the same PCR well. […] The level of HCV RNA in each well was calculated according to a standard curve run in the same PCR plate. The percentage of inhibition or decrease of HCV RNA level due to compound treatment was calculated using the DMSO or no compound control as 0% of inhibition. The cytotoxicity of the compounds was measured using a mitochondrial enzyme-based cell viability assay, CellTiter 96 AQueous One Solution Cell Proliferation Assay (Promega). […]

[4] = test system: wild-type HCV Con1 sub-genomic replicon cells; experiment: HCV replicon cell assay, 48-hour; assay type: cell-based, Hepatitis C virus; conditions: 48-hour assay
Description: as §2, §3
On day 2, compounds (in 100% DMSO) were serially diluted into DMEM containing 2% FBS, 0.5% DMSO, with appropriate supplements (media B). […]
as §8, with “One was for HCV and the other was for BVDV.” left out, “Experimental failure was flagged and rejected based on the level of BVDV RNA in each well.” left out

[5] = Substrate kinetic parameters of NS3 serine protease domains with KK-NS4A peptide and FRET substrate; assay type: biochemical, Hepatitis C virus
Description: Enzymatic activity was determined using a modification of the assay described by Taliani et al., [Taliani et al., Anal. Biochem., 240, pp. 60-67 (1996)]. An internally quenched fluorogenic peptide (FRET substrate), Ac-DED(EDANS)EEαAbuψ[COO]ASK (DABCYL)-NH2, was purchased from AnaSpec Incorporated (San Jose, Calif.). The assay was run in a continuous mode in a 96-well microtiter plate format. The buffer was composed of 50 mM HEPES (pH 7.8), 100 mM NaCl, 20% glycerol, 5 mM DTT, and 25 μM KK4A peptide ([…]; SEQ ID NO:5). The KK4A peptide represents the central region of the NS4A cofactor from genotype 1a with lysine residues added for improved solubility [Landro et al. Biochemistry, 36, pp. 9340-9348 (1997)]. The reaction was initiated by the addition of the FRET substrate after a 10-min pre-incubation of the buffer components with 2 nM of the NS3 protease at room temperature. The reaction was monitored at 30° C. for 20 min using a Molecular Devices fmax fluorometric plate reader. The filters for excitation and emission wavelengths were 355 nm and 495 nm, respectively. For determination of substrate kinetic parameters, concentrations of the FRET peptide were varied from 0.5-7.0 μM. Inter-molecular quenching was not observed in this range. The substrate kinetic parameters, Km and Vmax, were determined by fitting the data to the Michaelis-Menten equation. […] This mixture was incubated for an additional 15 min at room temperature prior to an incubation with the FRET substrate for another 20 min at 30° C. Seven to eight concentrations of compound were assayed, and the resulting data were fitted to the integrated form of Morrison's equation for tight binding inhibition [J. F. Morrison, Biochim. Biophys. Acta, 185 pp. 269-286 (1969)]. All substrate and inhibitor data were fitted using Marquardt-Levenberg nonlinear regression with GraphPad Prism software.
Five HCV NS3 serine protease domain proteins, including the genotype 1a and 1b wild-type (wt) proteases, and three mutants (A156S, D168V, and D168A) of the genotype 1b, were expressed and purified as described in Materials and Methods. The kcat and Km values of these NS3 proteases were determined using the KK-NS4A core peptide and the FRET substrate.
Table 4 summary: Three HCV NS3 serine protease domain proteins of the Con1 strain, including the wild-type proteases and two mutants, A156T and A156V, were expressed and purified. The kcat and Km values of these NS3 proteases were determined using the KK-NS4A core peptide and the FRET substrate, and the average of two independent assays was shown.

[6] = Table 1, FRET substrate, KK-NS4A core peptide
[7] = Table 4, Con1 strain, average of two independent assays

Molecule | Kcat [5, 6] [s⁻¹] | Km [5, 6] [µM] | Kcat [5, 7] [s − 1] | Km [5, 7] [µM] | other results
BILN 2061 [reference compound] | – | – | – | – | IC50 [1]: ~0.01 µM; IC50 (A156T HCV replicon cells): 1.09 µM; decrease in sensitivity conferred by the mutation (A156V HCV replicon cells): more than 1.400 fold; IC50 (A156V HCV replicon cells; 48-hour assay): 5.76 µM; IC50 (D168V HCV replicon cells): 5.09 µM and 4.65 µM; IC50 (A156S HCV replicon cells): 0.007 µM; IC50 (D168A HCV replicon cells): 1.86 µM; IC50 [2]: 0.004 µM; IC50 [3]: ~3 µM; IC50 higher than against the series A replicon cells [3]: 300 fold; IC50 [4]: 0.001 µM
B1 | 0.3 | 2 | – | – | change of substrate kinetic parameters (kcat, kcat/Km) compared with wild type ([5]; FRET substrate): less than 10 fold
B2 | 0.6 | 0.9 | – | – | –
B3 | – | – | 0.2 | 1.3 | –
B4 | – | – | 0.6 | 2.6 | –
B5 | 1.0 | 1.1 | 1.0 | 1.1 | –
B6 | 0.6 | 1.2 | – | – | –
